Measured values taken from the DeepSol protein solubility set.

Assay: soluble on expression in E. coli; label from the status in PepcDB or PDB records
With “MKHVPPTVLVWFRNDLRLHDHEPLHRALKSGLAITAVYCYDPRQFAQTHQGFAKTGPWRSNFLQQSVQNLAESLQKVGNKLLVTTGLPEQVIPQIAKQINAKTIYYHREVTQEELDVERNLVKQLTILGIEAKGYWGSTLCHPEDLPFSIQDLPDLFTKFRKDIEKKKISIRPCFFAPSQLLPSPNIKLELTAPPPEFFPQINFDHRSVLAFQGGETAGLARLQDYFWHGDRLKDYKETRNGMVGADYSSKFSPWLALGCLSPRFIYQEVKRYEQERVSNDSTHWLIFELLWRDFFRFVAQKYGNKLFNRGGLLNKNFPWQEDQVRFELWRSGQTGYPLVDANMRELNLTGFMSNRGRQNVASFLCKNLGIDWRWGAEWFESCLIDYDVCSNWGNWNYTAGIGNDARDFRYFNIPKQSQQYDPQGTYLRHWLPELKNLPGDKIHQPWLLSATEQKQWGVQLGVDYPRPCVNFHQSVEARRKIEQMGVIA” the “soluble on expression in E. coli” value was “soluble”.
In the case of “GMSLPHLSSGEVASVLPLGKQLTQTPSAALFKEHRLEVMRMVLPAGKQVGSHSVAGPSTIQCLEGEVEIGVDGAQRRLHQGDLLYLGAGAAHDVNAITNTSLLVTVVLVDRGGS”, the “soluble on expression in E. coli” value was “soluble”.
With “MAHHHHHHMRMSLTTRRPFCPVLLNIGSSRAVTLSHFHAKVCPSITATVKQTIRELDDEASPNHQRRQESCFSSGELRLRPYGFSPERPQLQHESWSCAWHSYLNAVRLRGEVSAAGVAPLPPTATSANSTSHNDDEFFPMTGTLTLPVPVVVPTSNNEPSNETIMMEFFRVDAFIPVRVQMYHVMRRLIKMQAVWNNIVAIGIVVPTHEVEYFISAARAAHASDGERTPHALLSRKPSVLVYDPEGLRFQAPESKRLRK” the “soluble on expression in E. coli” value was “not soluble”.
In the case of “MGSDKIHHHHHHMNRIAEEVGLQKASVYHHYAEKDTLLLALVDYVVEELRYRIVQPDDEDPRQQLRRFIDEVVFGHHAGPDATALSPPTDGTIRAFIQIRAQAVHDDDYREQITTIDRIQQEHIAEIIQRGVDAGEFRDVDPTQVASFISTLLTGVFTRRVTMTTDLTPVREATHAYLEAVLVA”, the “soluble on expression in E. coli” value was “not soluble”.
With “MAHHHHHHMERCLLLSAWPTLHEREVKEASEFVRSSSVSRRDSMALSLNHAGAFPSASHSGTHRGSFATMLATGSRAASPHPHDPCATPPPGIRCLDLPEHYHARDTRKNKSAVNDYDEDEDDGAYRSGSCSRCLSRASSFSLGAGGMTPLAWKMSSSMNGESPSCRATESPCSAFAQEHLVATAVMERRVNRMAGGISFQGMTPMDALLAGRLAPPDRREEQQELDESGDARGVSPPFRERSMAPAELVAERTGRQQPR” the “soluble on expression in E. coli” value was “not soluble”.
For “MGSDKIHHHHHHMVILVNPSILESSFIPDRLVARDGEIERIMETVIKPTKNGITTNLILYGDSGTGKTVTMRYLAREIRDPQVVYVNAIAYRYVKNVLIDFLSKFGIIVPERSSYASLFTRIEGLLRNQGKNVILVIDEAANILKGDYDGLYYLFRSKDSFDVNISTIFVVMEDPAILFDAKIRKSYGIFSEIKFRRYTKGEIYQIVMNRAVQSLTGEGYDEDVLDYIAEVSAEYGSARVGIDILAKAAHIAEYRRSPKISFDDVRAARSMISPFVTESKLASMDYEDLMVLLSICRCLSASRFTDVDCISRNLSVISEQYGKKDINLYDRIKRLENNGIISSSIEGQGRGEGVKKVISIYDIPVSVLTEKIENLLSA”, the “soluble on expression in E. coli” value was “not soluble”.
In the case of “MGSDKIHHHHHHQIQQQSPYPKREFRGAWIQAVNGQFRGIPTEKLKQTLIDQLNSLQGAGINAIIFQVRPEADALYASQLEPWSRFLTGVQGQAPSPYWDPMQFMIDECHKRGMEFHAWINPYRVKTSLKSELSANHLYNIHPEWFVTYNNQLFFDPALPESRRHICMVVADIVSRYDVDAIHMDDYFYPYPAKGMDFPDDASFARYGGGFTNRADWRRSNVNILIQKIHETIRGLKPWVKFGISPFGIYRNEKNDPLGSKTNGLQNYDDLYADVLLWARNGWVDYNIPQIYWQIGHPAADYETLVKWWAKNTENRPLFIGQSVMNTIQNADPKNPSMNQLPRKMALERAYQTIGGSCQWPASAVVENAGKYRDALVQEYHKYPALVPVFDFMDDKAPGKVRKVKKVWTEDGYMLFWTPPKAKDEMDRAVQYVVYRFGDKEKVNIDDASHIVAVTRNNFYKLPYKDGKNKYRYVVTALDRLHNESKSVSKKVKL”, the “soluble on expression in E. coli” value was “not soluble”.
For “MGTLIMENETNLSEVELRKNLIANINDCKTLLQLGEIYYSSGRYYLAANYLSYVMKMTNDAALYEKSNQLLFLAERAIQINNNDKMFSNFEFLDTLIMELLNCLKNHYYYNIDIELFELMHVRPSVDSIVVNTQNEKEEIVKHLQGLEELYFNLNDSFSKELLIKLLTFRLLGNHKVKMPLNTIDYWKQRKSIPNLIHSSETLQTNYHNWTLQLFDLTPLKYNLRLFYVPMGISATFLDKQYEYNKISPVIKVKEGDVVIDAGGCFGDTALYFAHEVGETGHVYTIEFIPSNLEIMSKNINLNEKLQNNITIVKHPLWNVSNTSLYYKDQGAASFVTFSEESGVTDKVSTITIDNLVVEHKLHKLDFIKMDVEGAEMNALKGAIHSITTFRPTLAIAIYHQISDFVNVMRFINDLNLGYQFYLGHYTVNAQETILFAVAREKMEVSDENEE”, the “soluble on expression in E. coli” value was “soluble”.
For “MGSDKIHHHHHHMSGHKCSYPWDLQDRYAQDKSVVNKMQQKYWETKQAFIKATGKKEDEHVVASDADLDAKLELFHSIQRTCLDLSKAIVLYQKRICFLSQEENELGKFLRSQGFQDKTRAGKMMQATGKALCFSSQQRLALRNPLCRFHQEVETFRHRAISDTWLTVNRMEQCRTEYRGALLWMKDVSQELDPDLYKQMEKFRKVQTQVRLAKKNFDKLKMDVCQKVDLLGASRCNLLSHMLATYQTTLLHFWEKTSHTMAAIHESFKGYQPYEFTTLKVWKLEGPLENLEKSKVLFISQAKSIAESIIIPGLRMLKRELCPQQSLFLSFFLFFYCIRIQYNENLLQSKSAN”, the “soluble on expression in E. coli” value was “not soluble”.
In the case of “MKKLSGIIVLLLAGAALYLALKTSPIDPLAWDAPAAPQMTGVLEPNDTLMKAELLGQGQLHGPEDTAVDSQGRVYAGLADGRVVRLDASGKVETFVDTGGRPLGMDFDAAGNLILADAWKGLLRIDPQGKVETLATEADSVPFAFTDDLDIASDGRIYFSDASSKFHQPDYILDLLEARPHGRLLRYDPSTGKTEVLLKDLYFANGVALSANEDFVLVNETYRYRITRYWLKGEKAGQHEVFIDNLPGLPDNLQGDRKGTFWVALPTPRKADADFLHRHPWLKAQLAKLPRMFLPKPTAYGLVIAIDEQGRIVRSLHDTSGHHLRMITSAKPVGDQLYFGSLENDRIGRLAIPLEHHHHHH”, the “soluble on expression in E. coli” value was “soluble”.
In the case of “PPTGECRTVVFDFDGVLAEGFEGEVRPRPLGVALARRLIGRGYRVYIVSGRPEQERSLIARLLREWCIPLGGVRGIILRRRGVGEVDHKLESIMEVEAREGCVGEVHDDNPYVLEALRRRVETLVLHTPR”, the “soluble on expression in E. coli” value was “not soluble”.
In the case of “MSLKIILSIFLAFFLSACGVKLSLPKEVDLTQEQMKDLNLTYDWYRSYDNAKLNEFLNFVLLNNSDINIARKTLLSALARADLIDYDLYPTLSGNLGFGADKDLNSGKQSKNFNNSLNLSYELDIYGKLRDSASASEFSAKASAYDLENLKISMINTALNDVFELAYFNDVDKLLRAYLSNLEQMKELYNYKYKLGKIEELDLLNIEQSLLRAKQNLLSNDQNRNLLIKNLQDLLARQEGFAYIEYFKTLSEGHHHHHH”, the “soluble on expression in E. coli” value was “soluble”.
For “MAHHHHHHMSGEVDFWSATIAAYQPLQLTSPELTPKLLKRPPFRFIHDIVCSIDARFAAYDHIIPAELRDSAQVDTKEKKIEYLTTLIQYINRIMKVEIDVNPKKIVSGNEPEKTNIFLQYLAAGVGYAQQDKAAQATPAPQQKSAASLASPASPAAASFSTNPAQDNLSLSLASGLCRKKSSSRDPAERRRSHVSVFDEAAKFNRKLSGYSLNLNLDEQRDVRSEGQSIVRMWNELANPQTETKPSHMPQEALETAIKRQIETVKMVQELLSENDRVIDKLEALVI”, the “soluble on expression in E. coli” value was “not soluble”.
In the case of “MEMLSGAEMVVRSLIDQGVKQVFGYPGGAVLDIYDALHTVGGIDHVLVRHEQAAVHMADGLARATGEVGVVLVTSGPGATNAITGIATAYMDSIPLVVLSGQVATSLIGYDAFQECDMVGISRPVVKHSFLVKQTEDIPQVLKKAFWLAASGRPGPVVVDLPKDILNPANKLPYVWPESVSMRSYNPTTTGHKGQIKRALQTLVAAKKPVVYVGGGAITAGCHQQLKETVEALNLPVVCSLMGLGAFPATHRQALGMLGMHGTYEANMTMHNADVIFAVGVRFDDRTTNNLAKYCPNATVLHIDIDPTSISKTVTADIPIVGDARQVLEQMLELLSQESAHQPLDEIRDWWQQIEQWRARQCLKYDTHSEKIKPQAVIETLWRLTKGDAYVTSDVGQHQMFAALYYPFDKPRRWINSGGLGTMGFGLPAALGVKMALPEETVVCVTGDGSIQMNIQELSTALQYELPVLVVNLNNRYLGMVKQWQDMIYSGRHSQSYMQSLPDFVRLAEAYGHVGIQISHPHELESKLSEALEQVRNNRLVFVDVTVDGSEHVYPMQIRGGGMDEMWLSKTERT”, the “soluble on expression in E. coli” value was “soluble”.
With “MGSDKIHHHHHHATEADVEAAFNPYKNGFPSFPGLAAGTVVNKGNVEQFKDALDPGLYQIVKNGWDEIKVGPTTQFAMDKFYVEATKKNLNTAKLGAQNGEITGFVAGRPFPEEPKADDPRAGEKLAWNFKYGLNWGDNAAIYPFYWKYRNMTSGQVERTLKFNFHFLNFKHRVQHAPVPEVTPNPSELFRGIYVKVLEPQDLKNTQLLIQRYEDDLKFDDAYLYLGFQRRVRRLATGQTTDAFLGADLMIEDFEGYNGRISDMKWTFKGTKNILMPYYNHNELQLTDEFKDPSGYKFVDFGGQGGCFPKITWQLRKVYVLEAAPVLASHPVSKRVFHVDAQVFNINRTLIYDRKGELWKTFTIGKSHPDHHLPVNKGTGIAIDDSFSMIDVQAKHCTTGQFKGQVDPKLNPPSLFQVQNMRGGD” the “soluble on expression in E. coli” value was “not soluble”.
In the case of “AMEVHPISEFASPFEVFKCIERDFKVAGLLESIGGPQYKARYSVIAWSTNGYLKIHDDPVNILNGYLKDLKLADIPGLFKGGMIGYISYDAVRFWEKIRDLKPAAEDWPYAEFFTPDNIIIYDHNEGKVYVNADLSSVGGCGDIGEFKVSFYDESLNKNSYERIVSESLEYIRSGYIFQVVLSRFYRYIFSGDPLRIYYNLRRINPSPYMFYLKFDEKYLIGSSPELLFRVQDNIVETYPIAGTRPRGADQEEDLKLELELMNSEKDKAEHLMLVDLARNDLGKVCVPGTVKVPELMYVEKYSHVQHIVSKVIGTLKKKYNALNVLSATFPAGTVSGAPKPMAMNIIETLEEYKRGPYAGAVGFISADGNAEFAIAIRTAFLNKELLRIHAGAGIVYDSNPESEYFETEHKLKALKTAIGVR”, the “soluble on expression in E. coli” value was “soluble”.
With “MGSDKIHHHHHHMKRAVGDLIEETMDIVLANPRGFCAGVDRAIIIVEQALEKFGAPIYVRHEVVHNKFVVDDLKKKGAIFVEELDEVPAGNTVIFSAHGVSKDVRAEAEARGLQVFDATCPLVTKVHLEVAKMRASGKEIIMIGHKGHPEVEGTMGQAEGGMYLVESPEDVAMLEVKDPSQLAYVTQTTLSIDDAAAIVSALKAKFPEITPPRSDSICYATQNRQDAVKVMARDCDLVIVVGSPNSSNSNRLREVAQNQGVESYMVDNASFLDPAWIVGKKRIGVSAGASAPEVLVQEVINKLRALGAADVQELNGVVENVVFKIPRNLAEA” the “soluble on expression in E. coli” value was “not soluble”.
With “QDGGYSAREFMIFSSQPAEIADKIMKDLERGSTYINIEGAYKRTPGKAVYVVVDPSEVRQVREIIEEIDPKAFVSIRIVSEQLGEGFTYLRKKRSIFGR” the “soluble on expression in E. coli” value was “not soluble”.
For “MNTFKETLFSLKKSNYLLNESAQILNDCVVNNNEIDERLRNSIKFALGIINLASYCLKNEQEQLDHELNHGNEAPWEFSFNEAEQLIECTVKNNFGNEKLVDLIFHIGDAMETYRTTNIKFRVPKSYYDAKQQIRKVIKN”, the “soluble on expression in E. coli” value was “soluble”.
For “TVQCKVTLLDGTEYSCDLEKHAKGQVLFDKVCEHLNLLEKDYFGLLFQESPEQKNWLDPAKEIKRQLRNLPWLFTFNVK”, the “soluble on expression in E. coli” value was “not soluble”.
In the case of “MVLPKDVKWDLIRQFQRHEQDTGSPEVQIAILTERINRLTEHMKKHKKDIHSRRGLIAMVNKRRKLLEYLRETDYAKYLEVVQKLNLKVK”, the “soluble on expression in E. coli” value was “soluble”.
